T1: HA-tagged UL128Δ1-27 hCMV protein expressed in HEK293T cells (human cytomegalovirus (hCMV), UniProt P16837 28-171)
T1 construct: mature; not shown: hemagglutinin (HA) tag
T1 sequence: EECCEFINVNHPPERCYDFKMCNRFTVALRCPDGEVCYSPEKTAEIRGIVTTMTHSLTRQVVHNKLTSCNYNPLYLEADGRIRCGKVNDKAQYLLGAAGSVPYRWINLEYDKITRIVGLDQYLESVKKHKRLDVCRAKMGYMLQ

B1: human monoclonal antibody 1F11 (antibody, V domains shown)
VH: QVQLVESGGGVVQPGRSVRLSCVASGFTFSSYAMHWVRQAPGKGLEWVSLISFDGDNKYYADSVRGRFTISRDSSQKTLFLQMNSLRVEDTAIYYCAREELVGLMPPYYNYGLDVWGQGTTVTVSS
VL: QSVLTQPPSVSAAPGQKVTISCSGSSSNIGNNFVSWYQQLPGTAPKLLIYDNDRRPSGIPDRFSGSKSDTSATLVITGLQTGDEADYYCETWDGSLNPAVVFGGGTRLTVL
notes: Human IgG from an EBV-immortalised B cell clone
B2: human monoclonal antibody 2F4 (antibody, V domains shown)
VH: QVQLVESGGGVVQPGRSLRLSCAASGFSFNTYGMHWVRQAPGKGLEWVAVIWDDGSKMYHADSVKGRFTISRDNSKNTLYLQMNSLRAEDTAVYYCARDEGAIMLHAMTDYGLDVWGQGTTVTV
VL: SYELTQPPSVSVSPGQTATITCSGDNLGDEFACWYQQKPGQSPVLVIYQDSKRPSGIPERFSGSSSGNTATLTIRGTQAMDEADYYCQAWDSSTAHYVFGTGTKVTVL
notes: Human IgG from an immortalised B cell clone
B3: human monoclonal antibody 5A2 (antibody, V domains shown)
VH: QVQLVQSGAEVRKPGSSVKVSCKASGGTFSSYVIHWVRQAPGQGLEWMGGIIPIFNTANYAQKVQGRVTITADESTSTAYMELSSLRSEDTAIYYCARDFLSGPMEMPGGYYGLDVWGQGTTVTVSS
VL: not shown
notes: as for B2

One assay addresses UL130/UL131A of a clinical hCMV isolate (virus used in the neutralisation assay) (human cytomegalovirus (hCMV), UniProt P16772 26-214). The assay is described as follows: cell-based or functional assay.
With B1, the “50% neutralisation (µg/ml), Endothelial cells” value amounted to 0.001 µg/mL and the “50% neutralisation (µg/ml), Fibroblasts” value was more than 2 µg/mL.
The like results for B2 were, in that order, 0.003 µg/mL and more than 2 µg/mL.
Take B3: the “50% neutralisation (µg/ml), Endothelial cells” value stood at 0.002 µg/mL and the “50% neutralisation (µg/ml), Fibroblasts” value is more than 2 µg/mL.

For the next assay, the target named is T1, HA-tagged UL128Δ1-27 hCMV protein …. Put plainly: FACS staining of fixed, permeabilized transfected HEK293T cells.
With B1, the binding result is “no binding”.
Same read-out and setting: next, B2: “no binding”; B3: “no binding”.

In the next assay the target is T2, HA-tagged UL130Δ1-25 hCMV protein expressed alone in HEK293T cells (human cytomegalovirus (hCMV), UniProt P16772 26-214).
T2 construct: mature; not shown: hemagglutinin (HA) tag
The description is as above.
With B1, the binding result is given as “no binding”.
Still for that read-out and setting: next, B2: “no binding”; B3: “no binding”.

The record behind these values is patent US20080213265A1 (INSTITUTE FOR RESEARCH IN BIOMEDICINE, published 2008).
